Two substances from paper PMC5323203 can be followed below.

This assay has as its target GST-Foxp1 fusion protein (mouse) (mouse) (UniProt P58462). The assay is described as follows: pull-down; GST or GST-Foxp1 from bacterial extracts immobilised on GSH-agarose beads and washed; 1 ul of 35S-labelled in vitro translated Ikaros in 200 ul 0.02 M HEPES-KOH pH 7.9, 0.1% NP-40, 0.15 M NaCl, 1 mM DTT, 1 h at 4°C; quantified relative to input and to wild type (100%).
Sequence of UniProt P58462 (P58462 whole entry, the tested form may be a part): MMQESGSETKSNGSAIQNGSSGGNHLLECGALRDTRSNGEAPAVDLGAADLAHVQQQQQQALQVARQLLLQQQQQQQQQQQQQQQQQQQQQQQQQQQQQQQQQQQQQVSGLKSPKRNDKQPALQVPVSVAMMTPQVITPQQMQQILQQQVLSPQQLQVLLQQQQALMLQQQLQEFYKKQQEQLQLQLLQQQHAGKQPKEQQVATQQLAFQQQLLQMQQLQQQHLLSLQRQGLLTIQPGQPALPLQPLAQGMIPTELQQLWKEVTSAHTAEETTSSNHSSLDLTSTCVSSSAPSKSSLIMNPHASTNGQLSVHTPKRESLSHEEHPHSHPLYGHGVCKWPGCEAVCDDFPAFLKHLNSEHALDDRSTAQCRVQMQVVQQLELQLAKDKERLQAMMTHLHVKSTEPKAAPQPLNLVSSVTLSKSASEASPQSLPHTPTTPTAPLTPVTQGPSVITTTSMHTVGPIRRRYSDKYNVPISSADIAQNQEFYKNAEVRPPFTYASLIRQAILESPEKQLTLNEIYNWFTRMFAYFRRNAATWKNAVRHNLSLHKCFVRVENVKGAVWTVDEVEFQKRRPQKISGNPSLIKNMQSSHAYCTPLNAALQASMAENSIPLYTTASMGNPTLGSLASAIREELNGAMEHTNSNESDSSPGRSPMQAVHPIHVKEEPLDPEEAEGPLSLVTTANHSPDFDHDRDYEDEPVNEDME

Consider “IKΔC458 (mouse Ikaros deletion of the two C-terminal zinc fingers; in vitro translated) (domain or fragment)”, for which the reduction relative to wild-type binding is 50%. Then “IKΔ235-362 (mouse Ikaros deletion; in vitro translated) (domain or fragment)”, with 40%.
